Measured values as given in the supplement of paper PMC9732359.
± gives the uncertainty stated by the source.

Test: protein stability index of a GFP-peptide fusion (yeast GPS) (PSI 1-4); higher = more stable; sorted into four equal gates, so the index is relative within each strain
Method in brief: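 Sequencing reads from sorted gates were used to score each peptide. The library consisted of tiled 17-residue yeast protein peptides fused downstream of GFP on a Cherry-expressing plasmid, pooled and carried in yeast. Mid-log cultures in leucine-free medium were split into four equal gates by GFP/Cherry ratio, and each gate's plasmids were PCR-amplified and Illumina-sequenced. The protein stability index adds up, over all gates, the read frequency multiplied by the gate number.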

GEICKNYELEKIADNIS [YDL116W/NUP84] showed a protein stability index (doa10∆) of 3.13 ± 0.098, a protein stability index (pdr5∆) of 3.12 ± 0.084 and a protein stability index (san1∆) of 2.96 ± 0.061. For the same sequence, the protein stability index (ubr1∆) was 3.09 ± 0.061.

GELGEIRALQPKLKEGA [YIL149C/MLP2] gave a protein stability index (doa10∆) of 3.15 ± 0.11, a protein stability index (pdr5∆) of 3.34 ± 0.19 and a protein stability index (san1∆) of 2.81 ± 0.15. The protein stability index (ubr1∆) was 3.36 ± 0.093.

In the case of GEMVGVLAAQSIGEPAT [RPO21], the protein stability index (doa10∆) is reported as 2.36 ± 0.087, the protein stability index (pdr5∆) is reported as 2.55 ± 0.073 and the protein stability index (san1∆) is reported as 2.38 ± 0.066. For the same sequence, the protein stability index (ubr1∆) was 2.58 ± 0.088.

Sequence GENAAEKPDNSNHNNLN [SNF2] has a protein stability index (doa10∆) of 3.01 ± 0.068, a protein stability index (pdr5∆) of 3.25 ± 0.064 and a protein stability index (san1∆) of 3.27 ± 0.05. It also gave a protein stability index (ubr1∆) of 3.21 ± 0.035.

Sequence GENDDDTLDGDLMDDMS [RPN3] has a protein stability index (doa10∆) of 2.73 ± 0.17, a protein stability index (pdr5∆) of 2.7 ± 0.075 and a protein stability index (san1∆) of 2.11 ± 0.12. For the same sequence, the protein stability index (ubr1∆) was 2.15 ± 0.1.

With GENNINFQKASATLDGC [BRN1] the protein stability index (doa10∆) was 2.94 ± 0.23, the protein stability index (pdr5∆) was 3.3 ± 0.21 and the protein stability index (san1∆) was 3.12 ± 0.25.

Sequence GEVVYLRKQKDSSTTSS [ITC1] has a protein stability index (doa10∆) of 1.79 ± 0.073, a protein stability index (pdr5∆) of 1.73 ± 0.08 and a protein stability index (san1∆) of 1.48 ± 0.14. It also gave a protein stability index (ubr1∆) of 2.23 ± 0.081.

GGADQVTRTQQWSMVAQ [SWI1] showed a protein stability index (doa10∆) of 3.15 ± 0.077, a protein stability index (pdr5∆) of 3.31 ± 0.075 and a protein stability index (san1∆) of 3.03 ± 0.063. It also gave a protein stability index (ubr1∆) of 3.07 ± 0.052.

With GGKSVGFGLVYNSVAEA [RPS24A] the protein stability index (doa10∆) was 3.11 ± 0.052, the protein stability index (pdr5∆) was 3.29 ± 0.05 and the protein stability index (san1∆) was 3.15 ± 0.035. The protein stability index (ubr1∆) was 2.84 ± 0.054.

For GGLKNGVLYQGNIQISE [DIS3], the protein stability index (doa10∆) was 3.25 ± 0.098, the protein stability index (pdr5∆) was 3.27 ± 0.085 and the protein stability index (san1∆) was 2.9 ± 0.072. For the same sequence, the protein stability index (ubr1∆) was 3.17 ± 0.065.

In the case of GGQIAHILFQNNPDMMI [ROX3], the protein stability index (doa10∆) is reported as 2.54 ± 0.041, the protein stability index (pdr5∆) is reported as 2.63 ± 0.046 and the protein stability index (san1∆) is reported as 2.59 ± 0.052. The protein stability index (ubr1∆) was 2.97 ± 0.046.

Work on GGSATARHKKKVENLDY [YML031W/NDC1] yielded a protein stability index (doa10∆) of 3.4 ± 0.14, a protein stability index (pdr5∆) of 3.38 ± 0.14 and a protein stability index (san1∆) of 3.06 ± 0.12. The protein stability index (ubr1∆) was 3.62 ± 0.29.

For GGTNEDDFTDAIQFVKE [YCS4], the protein stability index (doa10∆) was 2.35 ± 0.14, the protein stability index (pdr5∆) was 2.6 ± 0.15 and the protein stability index (san1∆) was 3.39 ± 0.07. For the same sequence, the protein stability index (ubr1∆) was 3.69 ± 0.19.

GHEELKRRIEEEQEKIN [ISW2] gave a protein stability index (doa10∆) of 3.36 ± 0.082, a protein stability index (pdr5∆) of 3.47 ± 0.086 and a protein stability index (san1∆) of 3.13 ± 0.062. It also gave a protein stability index (ubr1∆) of 3.35 ± 0.055.

GHIPWHILAVKKMMNTL [SSN2] gave a protein stability index (doa10∆) of 2.45 ± 0.065, a protein stability index (pdr5∆) of 2.85 ± 0.098 and a protein stability index (san1∆) of 2.74 ± 0.1. For the same sequence, the protein stability index (ubr1∆) was 1.1 ± 0.16.

With GIEHFDIPPPAIMKPYY [RPO31] the protein stability index (doa10∆) was 2.69 ± 0.15, the protein stability index (pdr5∆) was 2.92 ± 0.084 and the protein stability index (san1∆) was 3.34 ± 0.13. The protein stability index (ubr1∆) was 2.91 ± 0.099.

With GIFLHGKIPTLKISLIQ [PRP8] the protein stability index (doa10∆) was 2.26 ± 0.042, the protein stability index (pdr5∆) was 2.03 ± 0.035 and the protein stability index (san1∆) was 1.79 ± 0.053. For the same sequence, the protein stability index (ubr1∆) was 1.78 ± 0.029.

For GIRAPKGALMYGPPGTG [RPT5], the protein stability index (doa10∆) was 2.86 ± 0.14 and the protein stability index (ubr1∆) was 1.32 ± 0.11.

In the case of GISDDENDEEDIYMHDV [RRP4], the protein stability index (doa10∆) is reported as 3.33 ± 0.13, the protein stability index (pdr5∆) is reported as 3.31 ± 0.14 and the protein stability index (san1∆) is reported as 2.99 ± 0.12. The protein stability index (ubr1∆) was 3.46 ± 0.12.

In the case of GISDMCRLFFTELASKD [YCS4], the protein stability index (doa10∆) is reported as 2.37 ± 0.085, the protein stability index (pdr5∆) is reported as 2.4 ± 0.087 and the protein stability index (san1∆) is reported as 2.18 ± 0.1. For the same sequence, the protein stability index (ubr1∆) was 2.61 ± 0.078.

GISRDIKALQDSLFKDV [YML103C/NUP188] gave a protein stability index (doa10∆) of 2.19 ± 0.077, a protein stability index (pdr5∆) of 1.99 ± 0.063 and a protein stability index (san1∆) of 2.07 ± 0.089. The protein stability index (ubr1∆) was 1.77 ± 0.042.

Sequence GKHNLTIWCVCDSYLDA [BRR2] has a protein stability index (doa10∆) of 2.04 ± 0.059, a protein stability index (pdr5∆) of 2.26 ± 0.083 and a protein stability index (san1∆) of 2.73 ± 0.093. It also gave a protein stability index (ubr1∆) of 2.31 ± 0.045.

In the case of GKICLILTRLNGILPDD [SSN2], the protein stability index (doa10∆) is reported as 3.12 ± 0.21 and the protein stability index (ubr1∆) is reported as 3.5 ± 0.15.

In the case of GKILLKGDNITLITSAD [SME1], the protein stability index (doa10∆) is reported as 2.62 ± 0.092, the protein stability index (pdr5∆) is reported as 3.23 ± 0.1 and the protein stability index (san1∆) is reported as 2.77 ± 0.092. It also gave a protein stability index (ubr1∆) of 3.2 ± 0.053.

In the case of GKIVGFDEFMNVVIDEA [SME1], the protein stability index (doa10∆) is reported as 3.26 ± 0.063, the protein stability index (pdr5∆) is reported as 3.33 ± 0.064 and the protein stability index (san1∆) is reported as 3.36 ± 0.056. For the same sequence, the protein stability index (ubr1∆) was 3.39 ± 0.05.

GKIVSQRGKWNLKYLDN [RGR1] showed a protein stability index (doa10∆) of 2.28 ± 0.074, a protein stability index (pdr5∆) of 2.64 ± 0.068 and a protein stability index (san1∆) of 2.37 ± 0.091. It also gave a protein stability index (ubr1∆) of 2.17 ± 0.06.
